Where two headings read alike, the source gives them in different places.
T1: cynomolgus TPBG protein, full-length, on the cell surface (cynomolgus, UniProt Q4R8Y9 35-420)
T1 construct: whole, on cells; also called cTPBG; CHOk1-cTPBG
T1 sequence (looked up): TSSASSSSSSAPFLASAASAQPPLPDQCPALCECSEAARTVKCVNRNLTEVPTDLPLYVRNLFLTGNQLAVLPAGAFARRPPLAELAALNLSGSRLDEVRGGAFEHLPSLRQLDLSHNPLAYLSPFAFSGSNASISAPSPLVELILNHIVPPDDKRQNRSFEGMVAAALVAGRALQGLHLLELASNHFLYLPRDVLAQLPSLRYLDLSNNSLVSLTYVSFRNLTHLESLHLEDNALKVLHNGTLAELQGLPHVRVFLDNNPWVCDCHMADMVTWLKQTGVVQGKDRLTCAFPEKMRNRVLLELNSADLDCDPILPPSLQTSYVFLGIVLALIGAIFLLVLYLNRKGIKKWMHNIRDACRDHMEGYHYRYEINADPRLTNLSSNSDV

T2: human TPBG protein, full-length, on the cell surface (human, UniProt Q13641 32-420)
T2 construct: whole, on cells; Transfected HEK293 (293F-hTPBG clones) and CHO-k1 (CHOk1-hTPBG 3A2F1) cells; also used here for endogenous TPBG on the TPBG-positive tumour lines NCI-H1568, NCI-H1975 and MDA-MB-468 in the killing assays; also called hTPBG; 5T4
T2 sequence (looked up): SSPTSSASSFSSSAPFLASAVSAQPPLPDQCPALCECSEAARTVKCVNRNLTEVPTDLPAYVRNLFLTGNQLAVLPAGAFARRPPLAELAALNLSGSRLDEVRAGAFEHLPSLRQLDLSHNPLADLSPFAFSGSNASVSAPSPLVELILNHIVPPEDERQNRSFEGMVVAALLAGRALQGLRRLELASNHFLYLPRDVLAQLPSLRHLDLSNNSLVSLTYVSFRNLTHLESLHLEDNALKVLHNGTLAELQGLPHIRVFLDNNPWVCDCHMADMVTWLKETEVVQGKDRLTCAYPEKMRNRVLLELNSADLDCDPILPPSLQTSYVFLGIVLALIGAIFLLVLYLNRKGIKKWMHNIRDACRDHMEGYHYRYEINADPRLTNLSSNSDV

T3: human TPBG-hFc protein (human, UniProt Q13641 32-355)
T3 construct: range 32-355; Expressed in HEK293 cells, purified on protein A; also called immunogen A; hFc tagged TPBG protein; not shown: human IgG Fc fragment of the pCpC vector
T3 sequence (looked up): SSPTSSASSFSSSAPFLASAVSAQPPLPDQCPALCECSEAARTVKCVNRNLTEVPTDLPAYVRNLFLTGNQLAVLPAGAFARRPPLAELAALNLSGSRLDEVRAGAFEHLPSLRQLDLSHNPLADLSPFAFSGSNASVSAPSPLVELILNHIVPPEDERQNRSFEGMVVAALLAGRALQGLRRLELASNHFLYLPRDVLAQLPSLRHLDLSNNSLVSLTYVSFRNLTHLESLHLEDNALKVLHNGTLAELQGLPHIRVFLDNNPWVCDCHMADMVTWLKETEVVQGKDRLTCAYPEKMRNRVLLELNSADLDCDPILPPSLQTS

T4: human TPBG antigen immobilized on a CM5 chip (human, UniProt Q13641 32-355, limits assumed)
T4 sequence (looked up): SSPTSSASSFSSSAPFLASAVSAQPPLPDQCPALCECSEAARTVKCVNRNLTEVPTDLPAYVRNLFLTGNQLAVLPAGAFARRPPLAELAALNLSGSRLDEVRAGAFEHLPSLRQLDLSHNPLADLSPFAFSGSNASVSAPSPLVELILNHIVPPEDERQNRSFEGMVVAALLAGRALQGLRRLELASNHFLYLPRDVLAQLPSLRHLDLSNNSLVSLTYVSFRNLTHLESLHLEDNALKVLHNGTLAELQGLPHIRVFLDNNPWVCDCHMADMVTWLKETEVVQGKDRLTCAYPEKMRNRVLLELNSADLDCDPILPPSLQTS

T5: mouse TPBG protein, full-length, on the cell surface (mouse, UniProt Q9Z0L0 32-426)
T5 construct: whole, on cells; also called mTPBG; CHOk1-mTPBG
T5 sequence (looked up): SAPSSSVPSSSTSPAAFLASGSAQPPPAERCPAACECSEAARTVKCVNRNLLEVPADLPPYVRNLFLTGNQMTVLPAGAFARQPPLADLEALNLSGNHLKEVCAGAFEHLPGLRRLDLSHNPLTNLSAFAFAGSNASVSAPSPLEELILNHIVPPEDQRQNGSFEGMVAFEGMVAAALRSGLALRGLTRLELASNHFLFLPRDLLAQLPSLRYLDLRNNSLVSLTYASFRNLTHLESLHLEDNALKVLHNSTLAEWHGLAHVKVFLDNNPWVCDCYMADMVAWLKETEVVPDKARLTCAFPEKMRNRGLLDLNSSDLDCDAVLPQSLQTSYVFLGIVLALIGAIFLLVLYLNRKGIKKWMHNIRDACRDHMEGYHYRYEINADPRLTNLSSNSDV


Columns and labels:
[1] = molecular target: T1, cynomolgus TPBG protein, full-length, …; assay: FACS on CHOK1-cTPBG cells
[2] = molecular target: T2, human TPBG protein, full-length, on the …; assay: FACS on CHOK1-hTPBG cells
human TPBG-hFc protein = molecular target: T3, human TPBG-hFc protein; assay: ELISA, coated human TPBG-hFc
Method: The purified human TPBG-hFc obtained from step (1) diluting with PBS to a final concentration of 1.0 μg/mL was aliquoted into a 96-well ELISA plate at 100 μL per well, and sealed with a parafilm and incubated at 4° C. overnight. The plate was washed twice with plate washing buffer (PBS containing 0.01% (v/v) Tween 20), and blocked with blocking buffer (PBS containing 0.01% (v/v) Tween 20 and 1% (w/w) BSA) at room temperature for 2 h. The blocking buffer was discarded, and […] per well of the purified antibody TPBG was added. After incubating at 37° C. for 2 h, the plate was washed for three times with plate washing buffer (PBS containing 0.01% (v/v) Tween 20). HRP (horseradish peroxidase)-labeled secondary antibody (purchased from Sigma) was added and incubated at 37° C. for 2 h, and the plate was washed for three times using plate washing buffer (PBS containing 0.01% (v/v) Tween 20). 100 μL of TMB substrate was aliquoted into each well, incubated at room temperature for 30 min, and 100 μL of stop buffer (1.0 N HCl) per well was subsequently added. A_{450 nm} values were read using the ELISA plate reader (SpectraMax 384plus purchased from Molecular Device), and the results were shown in Table 5. […] In Table 5 the IgG control herein is a mice IgG control, the data in the Table are OD_{450 nm} values, and Blank represents the OD_{450 nm} value of PBS buffer in the plate.
The purified humanized TPBG antibody obtained from Embodiment 1 was reacted with human TPBG-hFc, for the method, see (5) Identification of lead antibody in Embodiment 1. The EC50 in Table 11 and Table 12 are calculated according to the OD450 nm value of the h12B12 variants and the h28D4 variants, respectively. […] FIGS. 7A and 7B are the binding reactions of purified humanized h12B12 variants to human TBPG-hFc protein, and FIGS. 8A and 8B are the binding reactions of the purified humanized h28D4 variants to human TBPG-hFc protein.

[3] = molecular target: T4, human TPBG antigen immobilized on a CM5 …; assay: SPR (Biacore), human TPBG antigen immobilized on CM5 chip
Method: To assess the binding specificity and affinity of the humanized anti-TPBG antibody, Biacore analysis was performed using human TPBG antigen immobilized on a CM5 chip. Biacore technique utilizes the change in the refractive index of surface layer after antibody binding to the TPBG antigen immobilized on the surface layer. The binding was determined by surface plasmon resonance (SPR) through detecting the laser refracted from the surface. Non-specific and specific interactions were distinguished by analysis of signal kinetics binding rate and dissociation rate. Chimeric antibodies 12B12 and 28D4 were used as controls.

[4] = molecular target: T5, mouse TPBG protein, full-length, on the …; assay: FACS on CHO-k1 cells with surface-expressed mouse TPBG, fluorescent secondary antibody, mean fluorescence intensity
[5] = molecular target: T2, human TPBG protein, full-length, on the …; assay: cell-based or functional assay
[6] = molecular target: T2, human TPBG protein, full-length, on the …; assay: cell-based or functional assay; remark: listed apart in the source

| Binder | EC50 [1] [nM] | EC50 [2] [nM] | EC50 (human TPBG-hFc protein) [nM] | Kd [3] [nM] | koff [3] [s⁻¹] | kon [3] [M⁻¹ s⁻¹] | binding result [4] | IC50 of cell killing, NCI-H1568 cells (CellTiter-Glo, 5 days) [5] [nM] | IC50 of cell killing, MDA-MB-468 cells (CellTiter-Glo, 5 days) [6] [nM] | IC50 of cell killing, NCI-H1568 cells (CellTiter-Glo, 5 days) [6] [nM] | IC50 of cell killing, NCI-H1975 cells (CellTiter-Glo, 5 days) [6] [nM] |
| --- | --- | --- | --- | --- | --- | --- | --- | --- | --- | --- | --- |
| Chimeric antibody 28D4 (antibody, V domains shown, Mouse variable domains on human IgG1 heavy and human kappa light constant regions; also called c28D4; TPBG chimeric antibody 28D4) VH: DVQLVESGGGLVRPGGSLKLSCAASGFTFSNYVMSWARQSPEKRLEWVAEISTGGSHTYYSDTVTGRFTISRDNAKKALYLEMSSLRSEDTAIYYCIMFYYGSSYSMDYWGQGTSVTVSS VL: DIQMTQSTSSLSASLGDRITISCRASQDIRNYLNWYQQKPDGTVKLLIYHTSRLHSGVPSRFSGSGSGTDYSLTISNLEQEDIATYFCQQGDTLPLTFGAGTRLELK | 0.94 | 0.33 | 0.165 | 0.013 | 3.24e-05 | 2.5e+06 | no binding (tested: 100 nM) | – | – | – | – |
| Humanized antibody 28D4-3 (antibody, V domains shown, also called h28D4-3) VH: EVQLVESGGGLVKPGGSLRLSCAASGFTFSNYVMSWIRQAPGKGLEWVAEISTGGSHTYYSDTVTGRFTISRDNAKKSLYLQMNSLRAEDTAVYYCIMFYYGSSYSMDYWGQGTTVTVSS VL: DIQMTQSPSSLSASVGDRVTITCRASQDIRNYLNWYQQKPGKAPKLLIYHTSRLHSGVPSRFSGSGSGTDFTFTISSLQPEDIATYYCQQGDTLPLTFGQGTRLEIK | 0.62 | 0.26 | 0.16 | 0.0406 | 4.57e-05 | 1.12e+06 | no binding (tested: 100 nM) | – | – | – | – |
| Humanized antibody 28D4-7 (antibody, V domains shown, also called h28D4-7) VH: EVQLVESGGGLVKPGGSLRLSCAASGFTFSNYVMSWIRQAPGKGLEWVAEISTGGSHTYYSDTVTGRFTISRDNAKKSLYLQMNSLRAEDTAVYYCIMFYYGSSYSMDYWGQGTTVTVSS VL: DIQMTQSPSSLSASVGDRVTITCRASQDIRNYLNWYQQKPGKAPKLLIYHTSRLHSGVPSRFSGSGSGTDYTFTISSLQPEDIATYYCQQGDTLPLTFGQGTRLEIK | 0.27 | 0.37 | 0.161 | 0.0256 | 9.42e-05 | 3.68e+06 | no binding (tested: 100 nM) | – | – | – | – |
| Humanized antibody 28D4-4 (antibody, V domains shown, also called h28D4-4) VH: EVQLVESGGGLVKPGGSLRLSCAASGFTFSNYVMSWARQAPGKRLEWVAEISTGGSHTYYSDTVTGRFTISRDNAKKSLYLQMNSLRAEDTAVYYCIMFYYGSSYSMDYWGQGTTVTVSS VL: DIQMTQSPSSLSASVGDRVTITCRASQDIRNYLNWYQQKPGKAPKLLIYHTSRLHSGVPSRFSGSGSGTDFTFTISSLQPEDIATYYCQQGDTLPLTFGQGTRLEIK | 0.72 | 0.38 | 0.147 | 0.0231 | 3.58e-05 | 1.55e+06 | no binding (tested: 100 nM) | – | – | – | – |
| Chimeric Antibody 12B12-MMAF (antibody, V domains shown, MC-MMAF on cysteines reduced with TCEP (sites not given), DAR 3.0-5.0 per antibody) VH: DVQLVESGGGLVQPGGSRKLSCAASGFTFSNFGMHWVRQAPEKGLEWVAYISSGSTSFYYADTVKGRFTISRDNPKNTLFLQMTSLRSEDTAMYYCSRTNSLLRGFFDAWGAGTTVTVSS VL: DIVLTQSPASLAVSLGQRATISCRASQSVSSSSYTYLHWYQQKPGQPPKLLIKSASNLESGVPARFSGTGSGTDFTLNIHPVEEEDTATYYCQHSWEIPLTFGAGTKLELK | – | – | – | – | – | – | – | 0.063 | – | – | – |
| Humanized Antibody 12B12-12-MMAF (antibody, V domains shown, MC-MMAF on cysteines reduced with TCEP (sites not given), DAR 3.0-5.0 per antibody) VH: EVQLVESGGGLVQPGGSLRLSCAASGFTFSNFGMHWVRQAPGKGLEWVSYISSGSTSFYYADTVKGRFTISRDNAKNSLYLQMNSLRDEDTAVYYCARTNSLLRGFFDAWGQGTTVTVSS VL: DIVLTQTPLSLSVTPGQPASISCRASQSVSSSSYTYLHWYLQKPGQPPQLLIKSASNLESGVPDRFSGSGSGTDFTLKISRVEAEDVGVYYCQHSWEIPLTFGQGTKLEIK | – | – | – | – | – | – | – | 0.066 | 0.06 | 0.05 | 0.13 |
| Humanized Antibody 12B12-15-MMAF (antibody, V domains shown, MC-MMAF on cysteines reduced with TCEP (sites not given), DAR 3.0-5.0 per antibody) VH: EVQLVESGGGVVQPGRSLRLSCAASGFTFSNFGMHWVRQAPGKGLEWVAYISSGSTSFYYADTVKGRFTISRDNSKNTLYLQMNSLRAEDTAVYYCARTNSLLRGFFDAWGQGTTVTVSS VL: DIVLTQTPLSLSVTPGQPASISCRASQSVSSSSYTYLHWYLQKPGQPPQLLIKSASNLESGVPDRFSGSGSGTDFTLKISRVEAEDVGVYYCQHSWEIPLTFGQGTKLEIK | – | – | – | – | – | – | – | 0.058 | – | – | – |

From patent publication US20200062856A1 (XDCEXPLORER SHANGHAI, published 2020)
